Laboratory results as given in article PMC7485968 (2020).
Blank lines part the entries; values can stand above or below the binder they belong to.

Columns and labels:
His-tagged ERG [1] = molecular target: T1, His-tagged ERG (Homo sapiens (Human), UniProt P11308); assay: His-tag pull-down; AlphaScreen
T1 chain: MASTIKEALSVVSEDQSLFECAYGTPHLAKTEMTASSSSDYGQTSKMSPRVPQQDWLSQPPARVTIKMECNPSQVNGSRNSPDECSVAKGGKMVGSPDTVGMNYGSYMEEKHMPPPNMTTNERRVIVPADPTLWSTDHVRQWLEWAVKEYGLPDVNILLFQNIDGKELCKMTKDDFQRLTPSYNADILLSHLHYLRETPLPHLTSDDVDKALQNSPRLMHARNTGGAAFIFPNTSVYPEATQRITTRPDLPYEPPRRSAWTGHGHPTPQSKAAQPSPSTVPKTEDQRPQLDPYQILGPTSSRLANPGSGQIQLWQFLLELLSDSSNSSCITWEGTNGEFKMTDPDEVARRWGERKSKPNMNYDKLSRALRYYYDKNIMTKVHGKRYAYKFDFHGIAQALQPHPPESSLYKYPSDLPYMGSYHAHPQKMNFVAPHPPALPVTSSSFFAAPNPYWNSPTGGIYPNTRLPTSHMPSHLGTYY

His-tagged ERG [2] = molecular target: T1, His-tagged ERG; assay: His-tag pull-down

- binding result (His-tagged ERG [1]): binds
B1: FLAG-GST-EWS 1-355aa (protein)
chain: MASTDYSTYSQAAAQQGYSAYTAQPTQGYAQTTQAYGQQSYGTYGQPTDVSYTQAQTTATYGQTAYATSYGQPPTGYTTPTAPQAYSQPVQGYGTGAYDTTTATVTTTQASYAAQSAYGTQPAYPAYGQQPAATAPTRPQDGNKPTETSQPQSSTGGYNQPSLGYGQSNYSYPQVPGSYPMQPVTAPPSYPPTSYSSTQPTSYDQSSYSQQNTYGQPSSYGQQSSYGQQSSYGQQPPTSYPPQTGSYSQAPSQYSQQSSSYGQQSSFRQDHPSSMGVYGQESGGFSGPGENRSMSGPDNRGRGRGGFDRGGMSRGGRGGGRGGMGSAGERGGFNKPGGPMDEGPDLDLGPPVDPD

- binding result (His-tagged ERG [2]): no binding
B2: FLAG-GST-EWS 459-656aa (protein)
chain: PPREGRGMPPPLRGGPGGPGGPGGPMGRMGGRGGDRGGFPPRGPRGSRGNPSGGGNVQHRAGDWQCPNPGCGNQNFAWRTECNQCKAPKPEGFLPPPFPPPGGDRGRGGPGGMRGGRGGLMDRGGPGGMFRGGRGGDRGGFRGGRGMDRGGFGGGRRGGPGGPPGPLMEQMGGRRGGRGGPGKMDKGEHRQERRDRPY
